Measurements from US20110318339A1.

Tests used:
[1] = target: rHuman EGF R/Fc Chimera, CF (Cat# 344-ER) (human) (UniProt P00533); assay: Multispot ECL; Fab […]
[2] = target: rHuman CD44/Fc Chimera, CF (Cat# 3660-CD) (human) (UniProt P16070); assay: Multispot ECL; Fab […]
[3] = target: rHuman HGF R/c-MET/Fc Chimera, CF (Cat# 358-MT/CF) (human) (UniProt P08581); assay: Multispot ECL; Fab […]
[4] = target: rHuman IGF-1 sR, (IGF-1 sR), CF (Cat# 391-GR) (human) (UniProt P08069); assay: Multispot ECL; Fab […]
[5] = target: rHuman Erythropoietin R/Fc Chimera, CF (Cat# 963-ER) (human) (UniProt P19235); assay: Multispot ECL; Fab […]
[6] = target: rHuman ErbB2/Fc Chimera, CF (Cat# 1129-ER) (human) (UniProt P04626); assay: Multispot ECL; Fab […]
[7] = target: rHuman Notch-1/Fc Chimera, CF (Cat# 3647-TK) (human) (UniProt P46531); assay: Multispot ECL; Fab […]
[8] = target: rHuman P-Cadherin/Fc Chimera, CF (Cat# 861-PC) (human) (UniProt P22223); assay: Multispot ECL; Fab […]
[9] = target: rHuman EGF R/Fc Chimera, CF (Cat# 344-ER) (human) (UniProt P00533); assay: Multispot ECL; Fab 170 nM
[10] = target: rHuman CD44/Fc Chimera, CF (Cat# 3660-CD) (human) (UniProt P16070); assay: Multispot ECL; Fab 170 nM
[11] = target: rHuman HGF R/c-MET/Fc Chimera, CF (Cat# 358-MT/CF) (human) (UniProt P08581); assay: Multispot ECL; Fab 170 nM
[12] = target: rHuman IGF-1 sR, (IGF-1 sR), CF (Cat# 391-GR) (human) (UniProt P08069); assay: Multispot ECL; Fab 170 nM
[13] = target: rHuman Erythropoietin R/Fc Chimera, CF (Cat# 963-ER) (human) (UniProt P19235); assay: Multispot ECL; Fab 170 nM
[14] = target: rHuman ErbB2/Fc Chimera, CF (Cat# 1129-ER) (human) (UniProt P04626); assay: Multispot ECL; Fab 170 nM
[15] = target: rHuman Notch-1/Fc Chimera, CF (Cat# 3647-TK) (human) (UniProt P46531); assay: Multispot ECL; Fab 170 nM
[16] = target: rHuman P-Cadherin/Fc Chimera, CF (Cat# 861-PC) (human) (UniProt P22223); assay: Multispot ECL; Fab 170 nM
[17] = target: rHuman EGF R/Fc Chimera, CF (Cat# 344-ER) (human) (UniProt P00533); assay: Multispot ECL; Fab 85.0 nM
[18] = target: rHuman CD44/Fc Chimera, CF (Cat# 3660-CD) (human) (UniProt P16070); assay: Multispot ECL; Fab 85.0 nM
[19] = target: rHuman HGF R/c-MET/Fc Chimera, CF (Cat# 358-MT/CF) (human) (UniProt P08581); assay: Multispot ECL; Fab 85.0 nM
[20] = target: rHuman IGF-1 sR, (IGF-1 sR), CF (Cat# 391-GR) (human) (UniProt P08069); assay: Multispot ECL; Fab 85.0 nM
[21] = target: rHuman Erythropoietin R/Fc Chimera, CF (Cat# 963-ER) (human) (UniProt P19235); assay: Multispot ECL; Fab 85.0 nM
[22] = target: rHuman ErbB2/Fc Chimera, CF (Cat# 1129-ER) (human) (UniProt P04626); assay: Multispot ECL; Fab 85.0 nM
[23] = target: rHuman Notch-1/Fc Chimera, CF (Cat# 3647-TK) (human) (UniProt P46531); assay: Multispot ECL; Fab 85.0 nM
[24] = target: rHuman P-Cadherin/Fc Chimera, CF (Cat# 861-PC) (human) (UniProt P22223); assay: Multispot ECL; Fab 85.0 nM
[25] = target: rHuman EGF R/Fc Chimera, CF (Cat# 344-ER) (human) (UniProt P00533); assay: Multispot ECL; Fab 340 nM
[26] = target: rHuman CD44/Fc Chimera, CF (Cat# 3660-CD) (human) (UniProt P16070); assay: Multispot ECL; Fab 340 nM
[27] = target: rHuman HGF R/c-MET/Fc Chimera, CF (Cat# 358-MT/CF) (human) (UniProt P08581); assay: Multispot ECL; Fab 340 nM
[28] = target: rHuman IGF-1 sR, (IGF-1 sR), CF (Cat# 391-GR) (human) (UniProt P08069); assay: Multispot ECL; Fab 340 nM
[29] = target: rHuman Erythropoietin R/Fc Chimera, CF (Cat# 963-ER) (human) (UniProt P19235); assay: Multispot ECL; Fab 340 nM
[30] = target: rHuman ErbB2/Fc Chimera, CF (Cat# 1129-ER) (human) (UniProt P04626); assay: Multispot ECL; Fab 340 nM
[31] = target: rHuman Notch-1/Fc Chimera, CF (Cat# 3647-TK) (human) (UniProt P46531); assay: Multispot ECL; Fab 340 nM
[32] = target: rHuman P-Cadherin/Fc Chimera, CF (Cat# 861-PC) (human) (UniProt P22223); assay: Multispot ECL; Fab 340 nM

rHuman Erythropoietin R/Fc Chimera, CF (Cat# 963-ER) (human), sequence (P19235 25-250, change not shown): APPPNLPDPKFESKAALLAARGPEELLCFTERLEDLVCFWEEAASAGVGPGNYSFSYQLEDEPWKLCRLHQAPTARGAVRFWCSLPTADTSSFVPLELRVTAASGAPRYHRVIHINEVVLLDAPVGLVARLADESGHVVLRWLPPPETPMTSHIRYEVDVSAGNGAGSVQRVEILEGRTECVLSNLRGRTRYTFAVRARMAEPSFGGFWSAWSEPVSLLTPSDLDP

ECL signal [1]: 528
ECL signal [2]: 522
ECL signal [3]: 607
ECL signal [4]: 646
ECL signal [5]: 494
ECL signal [6]: 866
ECL signal [7]: 649
ECL signal [8]: 421
ECL signal [9]: 826
ECL signal [10]: 660
ECL signal [11]: 757
ECL signal [12]: 832
ECL signal [13]: 790
ECL signal [14]: 964
ECL signal [15]: 816
ECL signal [16]: 744
ECL signal [17]: 1000
ECL signal [18]: 693
ECL signal [19]: 998
ECL signal [20]: 891
ECL signal [21]: 817
ECL signal [22]: 844
ECL signal [23]: 780
ECL signal [24]: 709
ECL signal [25]: 1210
ECL signal [26]: 959
ECL signal [27]: 1240
ECL signal [28]: 1040
ECL signal [29]: 1260
ECL signal [30]: 1230
ECL signal [31]: 1210
ECL signal [32]: 1160
Substance: Fab VH4-34_IGHD7-27*01_IGHJ4*01 & V4-6_IGLJ4*01
